Earlier results, collected in publication PMC6472351.
“And” between values parts separate entries of the source, which are not always exact repeats. Equal entries are not always repeated. Where two headings read alike, the source gives them in different places.

What was measured:
[1] = molecular target: Histone H3 (Homo sapiens) (UniProt P68431)
[2] = molecular target: Histone H3 (Homo sapiens) (UniProt P68431); remark: listed apart in the source

| Kd [1] | Kd [2] | Substance |
| --- | --- | --- |
| 5 µM and 7 µM |  | GLP ankyrin (from UniProt Q9H9B1) |
|  | 6 µM and 1 µM | DIDO PHD (from UniProt Q9BTC0) |
